Results on one molecule are retold here after patent US20230348614A1 (VISTERRA, published 2023).

One experiment concerns the target T1, G238A (Homo sapiens, UniProt P18827).
T1 construct: clone of the alanine scanning library on HEK-293T cells; m17 with one substitution; also called CD138 G238A
T1 sequence (CD138 (SDC1), full length, point mutant, looked up): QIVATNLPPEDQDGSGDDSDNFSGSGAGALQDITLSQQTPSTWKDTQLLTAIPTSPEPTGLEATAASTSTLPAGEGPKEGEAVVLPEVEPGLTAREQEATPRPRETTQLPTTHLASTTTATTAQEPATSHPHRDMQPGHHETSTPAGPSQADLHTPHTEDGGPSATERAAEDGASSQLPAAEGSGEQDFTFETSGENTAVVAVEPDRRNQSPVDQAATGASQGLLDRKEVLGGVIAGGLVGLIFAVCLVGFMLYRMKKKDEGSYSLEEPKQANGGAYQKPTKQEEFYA
Kind of experiment: alanine scan: flow cytometry on HEK-293T cells expressing the mutant clone, 4320 Fab 0.50 ug/mL, normalised to WT CD138; Range %WT Binding 9; Normalized 4320 vs. BB4 30.2. Here is the method: (§1) Serial dilutions of each MAb were tested for immunoreactivity against cells expressing target protein (WT) or vector alone. Validation of target expression and optimization of detection and binding of anti-CD138 antibodies both by flow cytometry was completed in replicate (N=4). The optimal screening concentration for each MAb was determined based on the raw signal values and signal-to-background calculations specifically optimized for each test article. Optimized parameters included the use of 10% goat serum as blocking reagent. Primary antibody staining was for 60 minutes at 25° C. Wash buffer include phosphate buffered saline (divalent metal ion free), pH 7.4. […] Secondary antibodies were diluted 1:400 and incubated for 30 minutes at 25° C.
(§2) Library screens of very-high-affinity mAbs can fail to yield critical residues for antibody binding due to deficiencies of such an assay to detect and differentiate critical vs. less critical binding based on affinity and quantification of cell binding. One common approach in the literature is the use of monovalent antibody derived fragments such as Fab usually weakens binding sufficiently to allow identification of critical residues for binding. […] Binding of each test Ab to each mutant clone in the alanine scanning library was determined, in duplicate, and likewise evaluated by flow cytometry.
(In general: In flow cytometry, cells or beads pass a laser one at a time.)

In the next experiment the target is T2, G160A (Homo sapiens, UniProt P18827).
T2 construct: clone of the alanine scanning library on HEK-293T cells; m17 with one substitution; also called CD138 G160A
T2 sequence (CD138 (SDC1), full length, point mutant, looked up): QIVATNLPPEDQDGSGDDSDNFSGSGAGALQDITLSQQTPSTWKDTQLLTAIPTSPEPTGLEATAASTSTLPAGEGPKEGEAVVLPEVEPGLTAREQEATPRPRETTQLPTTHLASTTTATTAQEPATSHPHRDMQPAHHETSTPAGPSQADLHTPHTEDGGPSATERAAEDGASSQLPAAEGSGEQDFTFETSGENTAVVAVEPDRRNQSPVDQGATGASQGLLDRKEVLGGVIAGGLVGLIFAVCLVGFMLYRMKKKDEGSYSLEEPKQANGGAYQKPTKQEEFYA
Briefly: alanine scan: flow cytometry on HEK-293T cells expressing the mutant clone, 4320 Fab 0.50 ug/mL, normalised to WT CD138; Range %WT Binding 24; Normalized 4320 vs. BB4 60.2. Here is the method:
as §1, §2

B1: Fab fragment of mAb 4320 (Fab, V domains shown)
VH: QVQLVQSGAEVKKPGASVKVSCKASGYSFSSYYMHWVRQAPGQGLEWMGTIHPSDSTTNYNQKFQGRVTMTVDTSTRTAYMELSSLRSEDTAVYYCANFVYWGQGTTVTVSS
VL: DIVMTQTPLSLSVTPGQPASISCKSSKSLLYKDGKTYLNWFLQKPGQSPQLLIYVVSTRASGVPDRFSGSGSGTDFTLKISRVEAEDVGVYYCQQLVEYPYTFGQGTKLEIKR
modifications: N-terminal Q1 observed as pyroglutamic acid (PCA) in the 138-2-5 complex
notes: In the crystal structures heavy chain residues 1-213 were traced; also called Fab4320
For the molecule B1, the “Mean %WT Binding” value stood at 28.3 %WT with G238A and 59.7 %WT with G160A.
